Results: the supplement of paper PMC10567573

B1: MLH1 (parent)
chain: YAHQMVRTDSREQKLDAFLQPLSK
B2: ESR2 (parent)
chain: KSCQACRLRKCYEVGMVKCGSRRE

Variants of: B1
Assay: protein stability index of a GFP-peptide fusion (GPS, HEK-293T) (PSI 1-6); higher = more stable
Details: c terminus: a fixed tail appended
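Further: lentivirally expressed fusions sorted by FACS into six bins by GFP to DsRed ratio, PSI derived from sequencing read proportions per bin multiplied by bin number.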

Variant	protein stability index
YAHQMVRTDSPEQKLDAFLQPLSK [R11P]	2.46
YAHQMVRTDSFEQKLDAFLQPLSK [R11F]	2.51
YAHQMVRTDSTEQKLDAFLQPLSK [R11T]	3.34
YAHQMVRTDSWEQKLDAFLQPLSK [R11W]	1.33
YAHQMVRTDSGEQKLDAFLQPLSK [R11G]	2.78
YAHQMVRTDSCEQKLDAFLQPLSK [R11C]	2.59
YAHQMVRTDSQEQKLDAFLQPLSK [R11Q]	2.84
YAHQMVRTDSLEQKLDAFLQPLSK [R11L]	1.95
YAHQMVRTDSIEQKLDAFLQPLSK [R11I]	2.1
YAHQMVRTDSREWKLDAFLQPLSK [Q13W]	2.18
YAHQMVRTDSREFKLDAFLQPLSK [Q13F]	1.72
YAHQMVRTDSREGKLDAFLQPLSK [Q13G]	2.32
YAHQMVRTDSRENKLDAFLQPLSK [Q13N]	2.48
YAHQMVRTDSREMKLDAFLQPLSK [Q13M]	2.06
YAHQMVRTDSREIKLDAFLQPLSK [Q13I]	1.94
YAHQMVRTDSRETKLDAFLQPLSK [Q13T]	2.7
YAHQMVRTDSRERKLDAFLQPLSK [Q13R]	2.78
YAHQMVRTDSRECKLDAFLQPLSK [Q13C]	1.54
YAHQMVRTDSREHKLDAFLQPLSK [Q13H]	2.04
YAHQMVRTISREQKLDAFLQPLSK [D9I]	2.15
YAHQMVRTESREQKLDAFLQPLSK [D9E]	2.95
YAHQMVRTQSREQKLDAFLQPLSK [D9Q]	2.7
YAHQMVRTPSREQKLDAFLQPLSK [D9P]	2.29
YAHQMVRTLSREQKLDAFLQPLSK [D9L]	2.15
YAHQMVRTCSREQKLDAFLQPLSK [D9C]	2.46

Variant	protein stability index
YAHQMVRTASREQKLDAFLQPLSK [D9A]	2.18
YAHQMVRTWSREQKLDAFLQPLSK [D9W]	1.8
YAHQMVRTTSREQKLDAFLQPLSK [D9T]	1.99
YAHQMVRTSSREQKLDAFLQPLSK [D9S]	2.54
YAHQMVRTVSREQKLDAFLQPLSK [D9V]	1.89
YAHQMVRTNSREQKLDAFLQPLSK [D9N]	2.53
YAHQMVRTRSREQKLDAFLQPLSK [D9R]	2.54
YAHQMVRTHSREQKLDAFLQPLSK [D9H]	2.75
YAHQMVRTMSREQKLDAFLQPLSK [D9M]	2.49
YAHQMVRTYSREQKLDAFLQPLSK [D9Y]	1.98
YAHQMVRLDSREQKLDAFLQPLSK [T8L]	2.43
YAHQMVRGDSREQKLDAFLQPLSK [T8G]	2.69
YAHQMVRWDSREQKLDAFLQPLSK [T8W]	1.83
YAHQMVRIDSREQKLDAFLQPLSK [T8I]	2.49
YAHQMVRCDSREQKLDAFLQPLSK [T8C]	2.27
YAHQMVRSDSREQKLDAFLQPLSK [T8S]	2.71
YAHQMVRPDSREQKLDAFLQPLSK [T8P]	2.19
YAHQMVRDDSREQKLDAFLQPLSK [T8D]	2.78
YAHQMVRHDSREQKLDAFLQPLSK [T8H]	2.04
YAHQMVRFDSREQKLDAFLQPLSK [T8F]	2.12
YAHQMVRTDSREQWLDAFLQPLSK [K14W]	1.86
YAHQMVRTDSREQELDAFLQPLSK [K14E]	2.78
YAHQMVRTDSREQCLDAFLQPLSK [K14C]	2.08
YAHQMVRTDSREQILDAFLQPLSK [K14I]	2.43
YAHQMVRTDSREQFLDAFLQPLSK [K14F]	2

Variant	protein stability index
YAHQMVRTDSREQDLDAFLQPLSK [K14D]	2.46
YAHQMVRTDSREQALDAFLQPLSK [K14A]	2.84
YAHQMVRTDSREQLLDAFLQPLSK [K14L]	1.54
YAHQMVRTDSREQNLDAFLQPLSK [K14N]	2.48
YAHQMVRTDSREQYLDAFLQPLSK [K14Y]	1.83
YAHQMVRTDSREQVLDAFLQPLSK [K14V]	2.57
YAHQLVRTDSREQKLDAFLQPLSK [M5L]	2.49
YAHQPVRTDSREQKLDAFLQPLSK [M5P]	2.57
YAHQDVRTDSREQKLDAFLQPLSK [M5D]	3.34
YAHQSVRTDSREQKLDAFLQPLSK [M5S]	3.02
YAHQYVRTDSREQKLDAFLQPLSK [M5Y]	2.43
YAHQEVRTDSREQKLDAFLQPLSK [M5E]	3.31
YAHQRVRTDSREQKLDAFLQPLSK [M5R]	2.59
YAHQNVRTDSREQKLDAFLQPLSK [M5N]	3.16
YAHQKVRTDSREQKLDAFLQPLSK [M5K]	2.98
YAHQFVRTDSREQKLDAFLQPLSK [M5F]	2.34
YAHQHVRTDSREQKLDAFLQPLSK [M5H]	2.53
YAHQGVRTDSREQKLDAFLQPLSK [M5G]	2.63
YAHQMSRTDSREQKLDAFLQPLSK [V6S]	2.97
YAHQMDRTDSREQKLDAFLQPLSK [V6D]	3.03
YAHQMYRTDSREQKLDAFLQPLSK [V6Y]	2.42
YAHQMQRTDSREQKLDAFLQPLSK [V6Q]	2.71
YAHQMMRTDSREQKLDAFLQPLSK [V6M]	2.29
YAHQMKRTDSREQKLDAFLQPLSK [V6K]	2.53
YAHQMLRTDSREQKLDAFLQPLSK [V6L]	2.48

Variant	protein stability index
YAHQMTRTDSREQKLDAFLQPLSK [V6T]	2.7
YAHQMFRTDSREQKLDAFLQPLSK [V6F]	2.19
YAHQMIRTDSREQKLDAFLQPLSK [V6I]	2.43
YAGQMVRTDSREQKLDAFLQPLSK [H3G]	2.15
YAYQMVRTDSREQKLDAFLQPLSK [H3Y]	2
YANQMVRTDSREQKLDAFLQPLSK [H3N]	3.13
YADQMVRTDSREQKLDAFLQPLSK [H3D]	3.05
YACQMVRTDSREQKLDAFLQPLSK [H3C]	2.01
YALQMVRTDSREQKLDAFLQPLSK [H3L]	2.19
YAKQMVRTDSREQKLDAFLQPLSK [H3K]	2.75
YAIQMVRTDSREQKLDAFLQPLSK [H3I]	2.5
YAFQMVRTDSREQKLDAFLQPLSK [H3F]	2.19
IAHQMVRTDSREQKLDAFLQPLSK [Y1I]	3.38
KAHQMVRTDSREQKLDAFLQPLSK [Y1K]	3.88
CAHQMVRTDSREQKLDAFLQPLSK [Y1C]	1.59
DAHQMVRTDSREQKLDAFLQPLSK [Y1D]	4.12
RAHQMVRTDSREQKLDAFLQPLSK [Y1R]	3.12
AAHQMVRTDSREQKLDAFLQPLSK [Y1A]	3.48
LAHQMVRTDSREQKLDAFLQPLSK [Y1L]	3.16
FAHQMVRTDSREQKLDAFLQPLSK [Y1F]	2.12
HAHQMVRTDSREQKLDAFLQPLSK [Y1H]	3.6
MAHQMVRTDSREQKLDAFLQPLSK [Y1M]	3.11
SAHQMVRTDSREQKLDAFLQPLSK [Y1S]	3.88
GAHQMVRTDSREQKLDAFLQPLSK [Y1G]	3.87
WAHQMVRTDSREQKLDAFLQPLSK [Y1W]	2.66

Variant	protein stability index
TAHQMVRTDSREQKLDAFLQPLSK [Y1T]	3.87
NAHQMVRTDSREQKLDAFLQPLSK [Y1N]	2.95
QAHQMVRTDSREQKLDAFLQPLSK [Y1Q]	3.97
YAHLMVRTDSREQKLDAFLQPLSK [Q4L]	2.37
YAHHMVRTDSREQKLDAFLQPLSK [Q4H]	2.04
YAHFMVRTDSREQKLDAFLQPLSK [Q4F]	2
YAHCMVRTDSREQKLDAFLQPLSK [Q4C]	2.07
YAHWMVRTDSREQKLDAFLQPLSK [Q4W]	2.7
YAHVMVRTDSREQKLDAFLQPLSK [Q4V]	2.37
YAHTMVRTDSREQKLDAFLQPLSK [Q4T]	2.16
YAHRMVRTDSREQKLDAFLQPLSK [Q4R]	1.93
YAHKMVRTDSREQKLDAFLQPLSK [Q4K]	2
YAHSMVRTDSREQKLDAFLQPLSK [Q4S]	2.42
YAHAMVRTDSREQKLDAFLQPLSK [Q4A]	2.1
YAHGMVRTDSREQKLDAFLQPLSK [Q4G]	2
YAHMMVRTDSREQKLDAFLQPLSK [Q4M]	2.51
YAHIMVRTDSREQKLDAFLQPLSK [Q4I]	2.16
YAHQMVRTDSRYQKLDAFLQPLSK [E12Y]	1.98
YAHQMVRTDSRRQKLDAFLQPLSK [E12R]	2.53
YAHQMVRTDSRGQKLDAFLQPLSK [E12G]	2.2
YAHQMVRTDSRAQKLDAFLQPLSK [E12A]	2.37
YAHQMVRTDSRCQKLDAFLQPLSK [E12C]	2.19
YAHQMVRTDSRWQKLDAFLQPLSK [E12W]	1.6
YAHQMVRTDSRHQKLDAFLQPLSK [E12H]	2.34
YAHQMVRTDSRMQKLDAFLQPLSK [E12M]	1.87

Variant	protein stability index
YAHQMVRTDSRPQKLDAFLQPLSK [E12P]	2.32
YAHQMVRTDSRDQKLDAFLQPLSK [E12D]	3.18
YAHQMVRTDSRTQKLDAFLQPLSK [E12T]	2.29
YAHQMVRTDSRVQKLDAFLQPLSK [E12V]	2.42
YAHQMVRTDSRIQKLDAFLQPLSK [E12I]	1.82
YAHQMVRTDSRFQKLDAFLQPLSK [E12F]	1.74
YAHQMVRTDSRSQKLDAFLQPLSK [E12S]	2.32
YAHQMVRTDSRNQKLDAFLQPLSK [E12N]	2.37
YAHQMVRTDSRLQKLDAFLQPLSK [E12L]	2
YAHQMVPTDSREQKLDAFLQPLSK [R7P]	3.06
YAHQMVVTDSREQKLDAFLQPLSK [R7V]	2.12
YAHQMVITDSREQKLDAFLQPLSK [R7I]	2.57
YAHQMVFTDSREQKLDAFLQPLSK [R7F]	2.18
YAHQMVNTDSREQKLDAFLQPLSK [R7N]	2.98
YAHQMVWTDSREQKLDAFLQPLSK [R7W]	2.32
YAHQMVGTDSREQKLDAFLQPLSK [R7G]	1.96
YAHQMVKTDSREQKLDAFLQPLSK [R7K]	2.74
YAHQMVETDSREQKLDAFLQPLSK [R7E]	3.17
YAHQMVCTDSREQKLDAFLQPLSK [R7C]	1.59
YAHQMVRTDSREQKDDAFLQPLSK [L15D]	3.25
YAHQMVRTDSREQKFDAFLQPLSK [L15F]	2.2
YAHQMVRTDSREQKEDAFLQPLSK [L15E]	3.83
YAHQMVRTDSREQKGDAFLQPLSK [L15G]	3.28
YQHQMVRTDSREQKLDAFLQPLSK [A2Q]	2.74
YTHQMVRTDSREQKLDAFLQPLSK [A2T]	2.55

Variant	protein stability index
YGHQMVRTDSREQKLDAFLQPLSK [A2G]	3.19
YCHQMVRTDSREQKLDAFLQPLSK [A2C]	2.09
YSHQMVRTDSREQKLDAFLQPLSK [A2S]	2.82
YDHQMVRTDSREQKLDAFLQPLSK [A2D]	4.03
YHHQMVRTDSREQKLDAFLQPLSK [A2H]	1.8
YRHQMVRTDSREQKLDAFLQPLSK [A2R]	3.12
YMHQMVRTDSREQKLDAFLQPLSK [A2M]	3.12
YYHQMVRTDSREQKLDAFLQPLSK [A2Y]	2.39
YNHQMVRTDSREQKLDAFLQPLSK [A2N]	3.54
YLHQMVRTDSREQKLDAFLQPLSK [A2L]	2.84
YVHQMVRTDSREQKLDAFLQPLSK [A2V]	1.93
YAHQMVRTDRREQKLDAFLQPLSK [S10R]	2.51
YAHQMVRTDIREQKLDAFLQPLSK [S10I]	3
YAHQMVRTDTREQKLDAFLQPLSK [S10T]	2.39
YAHQMVRTDQREQKLDAFLQPLSK [S10Q]	2.78
YAHQMVRTDLREQKLDAFLQPLSK [S10L]	1.72
YAHQMVRTDEREQKLDAFLQPLSK [S10E]	2.79
YAHQMVRTDNREQKLDAFLQPLSK [S10N]	2.43
YAHQMVRTDWREQKLDAFLQPLSK [S10W]	1.66
YAHQMVRTDMREQKLDAFLQPLSK [S10M]	2.53
YAHQMVRTDAREQKLDAFLQPLSK [S10A]	2.97
YAHQMVRTDGREQKLDAFLQPLSK [S10G]	2.71

Variants of: B2
Assay: as above
Details: c terminus: a fixed tail appended

Variant	protein stability index
KSCQACRLRKCYEVGMVKCGSRRQ [E24Q]	1.88
KSCQACRLRKCYEVGMVKCGSRRV [E24V]	2.19
KSCQACRLRKCYEVGMVKCGSRRS [E24S]	1.79
KSCQACRLRKCYEVGMVKCGSRRN [E24N]	2.02
KSCQACRLRKCYEVGMVKCGSRRW [E24W]	2.33
KSCQACRLRKCYEVGMVKCGSRRT [E24T]	2.12
KSCQACRLRKCYEVGMVKCGSRRL [E24L]	2.07
KSCQACRLRKCYEVGMVKCGSRRG [E24G]	2.92
KSCQACRLRKCYEVGMVKCGSRRF [E24F]	1.91
KSCQACRLRKCYEVGMVKCGSRRH [E24H]	1.68
KSCQACRLRKCYEVGMVKCGSRRK [E24K]	2.45
KSCQACRLRKCYEVGMVKCGSRRR [E24R]	2.24
KSCQACRLRKCYEVGMVKCGSRRI [E24I]	1.73
KSCQACRLRKCYEVGMVKCGSRRM [E24M]	1.67
KSCQACRLRKCYEVGMVKCGSRRY [E24Y]	1.42
KSCQACRLRKCYEVGMVKCGSRRP [E24P]	2.74
